The target in this test is T1, 6His-Scy (recombinant, from E. coli).
T1 chain: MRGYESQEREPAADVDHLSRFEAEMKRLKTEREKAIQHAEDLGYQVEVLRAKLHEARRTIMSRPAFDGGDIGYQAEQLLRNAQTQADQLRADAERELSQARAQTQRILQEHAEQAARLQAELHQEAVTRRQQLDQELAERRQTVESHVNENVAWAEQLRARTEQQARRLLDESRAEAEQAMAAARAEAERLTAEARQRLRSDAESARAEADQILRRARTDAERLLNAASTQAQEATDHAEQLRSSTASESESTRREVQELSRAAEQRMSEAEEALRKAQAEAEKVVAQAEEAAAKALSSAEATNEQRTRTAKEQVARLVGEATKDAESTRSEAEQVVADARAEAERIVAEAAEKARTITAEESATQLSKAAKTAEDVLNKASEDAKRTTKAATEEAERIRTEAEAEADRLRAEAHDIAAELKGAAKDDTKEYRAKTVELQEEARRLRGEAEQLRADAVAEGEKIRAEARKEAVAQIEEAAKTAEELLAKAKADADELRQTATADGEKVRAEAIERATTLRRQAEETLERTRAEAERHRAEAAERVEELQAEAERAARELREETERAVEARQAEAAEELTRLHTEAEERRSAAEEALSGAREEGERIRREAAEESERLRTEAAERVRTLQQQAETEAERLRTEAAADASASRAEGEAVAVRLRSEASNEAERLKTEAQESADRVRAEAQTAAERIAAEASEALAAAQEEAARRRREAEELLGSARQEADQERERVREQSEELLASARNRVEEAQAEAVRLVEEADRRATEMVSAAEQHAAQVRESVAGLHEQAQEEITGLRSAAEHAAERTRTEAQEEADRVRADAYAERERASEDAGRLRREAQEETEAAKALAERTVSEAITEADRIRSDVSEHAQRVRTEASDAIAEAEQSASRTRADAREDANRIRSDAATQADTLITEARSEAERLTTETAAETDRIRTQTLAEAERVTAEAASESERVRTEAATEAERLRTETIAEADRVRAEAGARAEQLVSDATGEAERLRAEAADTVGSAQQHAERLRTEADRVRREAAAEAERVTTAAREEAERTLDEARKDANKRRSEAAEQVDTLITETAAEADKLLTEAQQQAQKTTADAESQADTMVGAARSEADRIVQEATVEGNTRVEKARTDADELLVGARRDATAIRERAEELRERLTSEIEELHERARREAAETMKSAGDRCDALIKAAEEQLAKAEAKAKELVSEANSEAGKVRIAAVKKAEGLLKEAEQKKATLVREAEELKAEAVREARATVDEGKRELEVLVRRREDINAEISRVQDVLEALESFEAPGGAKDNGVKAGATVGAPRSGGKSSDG
Briefly: SPR. As to conditions: chain shown with the change, ParA or ParAScy- (500 RU) immobilized on CM5 in the presence of ATP, read off a plot.

B1: ParA (purified recombinant wild type) S249Y; E250V (protein)
chain: MDDTPIGRAAQLAVEALGRAGEGLPRPEQTRVMVVANQKGGVGKTTTTVNLAASLALHGARVLVVDLDPQGNASTALGIDHHADVPSIYDVLVESRPLSEVVQPVPDVEGLFCAPATIDLAGAEIELVSLVARESRLQRAITAYEQPLDYILIDCPPSLGLLTVNALVAGQEVLIPIQCEYYALEGLGQLLRNVDLVRGHLNPTLHVSTILLTMYDGRTRLASQVADEVRSHFGEEVLRTSIPRSVRIYVAPSYGQTVLTYDPGSSGALSYLEAAREIALKGVGVTYDATHAHLGAQNDPSMVEGTQ
In the case of B1, the response by setting is: (600 nM 6His-Scy, parent: est. 13) 4.5 RU; (1000 nM 6His-Scy, parent: est. 27) 12 RU; (2000 nM 6His-Scy, parent: est. 43) 17 RU; (4000 nM 6His-Scy, parent: est. 53) 25 RU.
